Target: cytochrome c (human (endogenous in SK-N-BE), UniProt P99999 1-105)
Assay: co-IP

cytochrome c, sequence (P99999 whole entry): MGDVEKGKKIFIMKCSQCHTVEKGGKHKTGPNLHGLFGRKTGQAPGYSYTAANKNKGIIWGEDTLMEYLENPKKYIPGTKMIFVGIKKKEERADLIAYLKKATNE

B1: Neuroglobin (natural protein, human (endogenous in SK-N-BE), UniProt Q9NPG2 1-151, looked up)
chain: MERPEPELIRQSWRAVSRSPLEHGTVLFARLFALEPDLLPLFQYNCRQFSSPEDCLSSPEFLDHIRKVMLVIDAAVTNVEDLSSLEEYLASLGRKHRAVGVKLSSFSTVGESLLYMLEKCLGPAFTPATRAAWSQLYGAVVQAMSRGWDGE
B1 was tested, and the “fold NGB–cytochrome c association in mitochondria after E2” value was ~3.3 fold.

From article PMC3734830 (Cell Death & Disease, 2013)
